# From PMC7558290, “Evaluation on Elongation Factor 1 Alpha of Entamoeba histolytica Interaction with the Intermediate Subunit of the Gal/GalNAc Lectin and Actin in Phagocytosis” (Pathogens, 2020)
# T1: recombinant EF1a protein (rEF1a), elongation factor 1 alpha of Entamoeba histolytica (Entamoeba histolytica, UniProt P31018 1-442)
# T1 construct: Elongation factor 1 alpha (EF1a) of Entamoeba histolytica
# T1 sequence (looked up): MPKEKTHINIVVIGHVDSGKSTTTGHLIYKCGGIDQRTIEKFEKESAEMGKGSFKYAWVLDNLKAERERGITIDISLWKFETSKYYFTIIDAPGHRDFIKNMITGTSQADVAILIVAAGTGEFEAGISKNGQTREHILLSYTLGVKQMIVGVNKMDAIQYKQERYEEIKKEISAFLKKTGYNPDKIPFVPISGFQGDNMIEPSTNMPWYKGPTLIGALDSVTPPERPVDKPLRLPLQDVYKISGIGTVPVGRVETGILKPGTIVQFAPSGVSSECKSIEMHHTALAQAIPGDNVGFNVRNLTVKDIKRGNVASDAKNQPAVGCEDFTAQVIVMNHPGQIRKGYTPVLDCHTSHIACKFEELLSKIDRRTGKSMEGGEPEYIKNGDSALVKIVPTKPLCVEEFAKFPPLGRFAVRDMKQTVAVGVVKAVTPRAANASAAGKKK
# Biological target: T1, recombinant EF1a protein (rEF1a), …
# Assay: BLI; Octet-Red96; Igl-C (30 ug/mL, sodium acetate pH 4.0) or BSA (sodium acetate pH 5.0) immobilised on activated AR2G biosensors; rEF1a as analyte, twofold dilutions 4000 to 250 nM; running buffer pH 7.4, 1x Kinetics buffer, 30 °C; 1:1 binding model
# Settings: both partners purified
binder,measurement,value
C-terminal fragment of the intermediate subunit of the Gal/GalNAc lectin (Igl-C) (domain or fragment) EGPNAEDKKKSCAQLNNNCKKEGKYEISDGFVTCLDCDDSAYIVGSQVGACTQCSPNAFKDENNKCQLCSTKQSQYGHCAACSATACITCEDINLILTGEKPCTVCKDGFYQIENATDGVYCSPCPAKCKTCKYNTTSKKVECVTCTEQRLKDIKAPECACPTGTVQLENGTCQSCSDLSKYPGCKKTDSCNVDSRTGFIYATECSDGFSGRSPYSNCTTCTKSNYYPKEGEKNGCAKCDDKCATCSDKDTCLTCADPLKVGSKCDGCKTGYYMSNGECKPCTNHCSECSSAAECTVCESDTYKVISGNGCNSCVDGFYFDEIKGTCIPCTSPCTKCVGVKKDCEEQETGCNSEKKKIVEECTKCSTKDHIAEVPVNGACVCAYGYVEGTSTEDNKIECQACKAKVNEFCDSCNSKDCLRCNAEYLEAKGGECVCVEGYYTSSWGSCIPCSRHMPHCTKCTGEGECTTCEDGWKLKDGKCNGAKGI,Kd,0.0907 µM
same,koff,0.000347 s⁻¹
same,kon,3810 M⁻¹ s⁻¹
